Experimental data from patent US20120208744A1, “ANTI-MICROBIAL AGENTS AND COMPOSITIONS AND METHODS OF PRODUCTION AND USE THEREOF” (The Penn State Research Foundation, priority 2011, published 2012).

B1: Colicin M: TonB-dependent colicin; standard colicin preparation used in spot titers (protein, UniProt P05820 1-271, looked up)
Colicin-M: METLTVHAPSPSTNLPSYGNGAFSLSAPHVPGAGPLLVQVVYSFFQSPNMCLQALTQLEDYIKKHGASNPLTLQIISTNIGYFCNADRNLVLHPGISVYDAYHFAKPAPSQYDYRSMNMKQMSGNVTTPIVALAHYLWGNGAERSVNIANIGLKISPMKINQIKDIIKSGVVGTFPVSTKFTHATGDYNVITGAYLGNITLKTEGTLTISANGSWTYNGVVRSYDDKYDFNASTHRGIIGESLTRLGAMFSGKEYQILLPGEIHIKESGKR
B2: ExbD I102C: ExbD cysteine substitution I102C (pKP1010) (protein)
chain: MAMHLNENLDDNGEMHDINVTPFIDVMLVLLIIFMVAAPLAIVDVKVNLPASTSTPQPRPEKPVYLSVKADNSMFIGNDPVTDETMITALNALTEGKKDITCFFRADKTVDYETLMKVMDTLHQAGYLKIGLVGEETAKAK
B3: ExbD Y112C: ExbD cysteine substitution Y112C (pKP1020) (protein)
chain: MAMHLNENLDDNGEMHDINVTPFIDVMLVLLIIFMVAAPLAIVDVKVNLPASTSTPQPRPEKPVYLSVKADNSMFIGNDPVTDETMITALNALTEGKKDITIFFRADKTVDCETLMKVMDTLHQAGYLKIGLVGEETAKAK
B4: ExbD G96C: ExbD cysteine substitution G96C (pKP1004) (protein)
chain: MAMHLNENLDDNGEMHDINVTPFIDVMLVLLIIFMVAAPLAIVDVKVNLPASTSTPQPRPEKPVYLSVKADNSMFIGNDPVTDETMITALNALTECKKDITIFFRADKTVDYETLMKVMDTLHQAGYLKIGLVGEETAKAK
B5: ExbD K108C: ExbD cysteine substitution K108C (pKP1016) (protein)
chain: MAMHLNENLDDNGEMHDINVTPFIDVMLVLLIIFMVAAPLAIVDVKVNLPASTSTPQPRPEKPVYLSVKADNSMFIGNDPVTDETMITALNALTEGKKDITIFFRADCTVDYETLMKVMDTLHQAGYLKIGLVGEETAKAK
B6: Colicin B: TonB-dependent colicin; toxin that enters and kills E. coli via the TonB system; standard colicin preparation (protein, UniProt P05819 2-511, looked up)
Colicin-B: SDNEGSVPTEGIDYGDTMVVWPSTGRIPGGDVKPGGSSGLAPSMPPGWGDYSPQGIALVQSVLFPGIIRRIILDKELEEGDWSGWSVSVHSPWGNEKVSAARTVLENGLRGGLPEPSRPAAVSFARLEPASGNEQKIIRLMVTQQLEQVTDIPASQLPAAGNNVPVKYRLTDLMQNGTQYMAIIGGIPMTVPVVDAVPVPDRSRPGTNIKDVYSAPVSPNLPDLVLSVGQMNTPVRSNPEIQEDGVISETGNYVEAGYTMSSNNHDVIVRFPEGSGVSPLYISAVEILDSNSLSQRQEAENNAKDDFRVKKEQENDEKTVLTKTSEVIISVGDKVGEYLGDKYKALSREIAENINNFQGKTIRSYDDAMSSINKLMANPSLKINATDKEAIVNAWKAFNAEDMGNKFAALGKTFKAADYAIKANNIREKSIEGYQTGNWGPLMLEVESWVISGMASAVALSLFSLTLGSALIAFGLSATVVGFVGVVIAGAIGAFIDDKFVDELNHKIIK
B7: Colicin Ia: TonB-dependent colicin; standard colicin preparation used in spot titers (protein, UniProt P06716 1-626, looked up)
Colicin-Ia: MSDPVRITNPGAESLGYDSDGHEIMAVDIYVNPPRVDVFHGTPPAWSSFGNKTIWGGNEWVDDSPTRSDIEKRDKEITAYKNTLSAQQKENENKRTEAGKRLSAAIAAREKDENTLKTLRAGNADAADITRQEFRLLQAELREYGFRTEIAGYDALRLHTESRMLFADADSLRISPREARSLIEQAEKRQKDAQNADKKAADMLAEYERRKGILDTRLSELEKNGGAALAVLDAQQARLLGQQTRNDRAISEARNKLSSVTESLNTARNALTRAEQQLTQQKNTPDGKTIVSPEKFPGRSSTNHSIVVSGDPRFAGTIKITTSAVIDNRANLNYLLSHSGLDYKRNILNDRNPVVTEDVEGDKKIYNAEVAEWDKLRQRLLDARNKITSAESAVNSARNNLSARTNEQKHANDALNALLKEKENIRNQLSGINQKIAEEKRKQDELKATKDAINFTTEFLKSVSEKYGAKAEQLAREMAGQAKGKKIRNVEEALKTYEKYRADINKKINAKDRAAIAAALESVKLSDISSNLNRFSRGLGYAGKFTSLADWITEFGKAVRTENWRPLFVKTETIIAGNAATALVALVFSILTGSALGIIGYGLLMAVTGALIDESLVEKANKFWGI

Key:
E. coli = assay: Spot titer assay (sensitivity to TonB-dependent colicins and bacteriophage); assay type: cell-based, Escherichia coli; conditions: three platings
Experimental: Activity assays: Spot titer assays were performed. Initial rates of [^55Fe]-ferrichrome uptake were determined.
Spot titers, which are capable of detecting very low levels of TonB activity, measure sensitivity to colicins and bacteriophage that enter and subsequently kill E. coli via the TonB system. […] Consistent with their insensitivity to phage and colicins, the other 13 deletion variants supported no iron transport.

[1] = system: ferrichrome-mediated iron transport; assay: [55Fe]-ferrichrome uptake, ExbD cys substitutions, with or without CuoP treatment; assay type: cell-based, Escherichia coli; conditions: for activity: initial rate of ferrichrome-mediated iron transport relative to wild-type plasmid-encoded ExbD: non-reducing conditions, substitution expressed to native ExbD levels, strain RA1045
Experimental: Since CuoP treatment catalyzed almost 100% dimer formation for some of the cys substitutions, attempts were made to determine activity of the dimeric form. […] The amount of CuoP was reduced 10-fold to 0.03 mM and cells had to be suspended in fully supplemented M9 medium as described in Experimental Procedures.
Activity assays. Initial rates of [^55Fe]-ferrichrome uptake were determined. For assays where cultures were treated with copper-(1,10-phenanthroline)3, harvested cells were pelleted, resuspended in 1×M9 supplemented as described above (no sodium propionate added), and treated with an equal volume 0.06 mM CuoP ([final] 0.03 mM) or 0.5 mM sodium phosphate buffer, pH 7.4 (buffer only) for 5 min, at 37° C. with aeration. Cells were pelleted, and the standard iron transport protocol was followed starting with resuspension in the assay medium.
In all assays the CuoP solution was removed and assays carried out in identical media, but the medium present during the 5 min CuoP treatment was important and differentially affected activity of a wild-type strain.

[2] = strain RA1017 (ΔExbBD, ΔTolQRA)
[3] = strain RA1017/pKP724 (ExbB, ExbDΔ132-141)
[4] = strain RA1017/pKP752 (ExbB, ExbDΔ102-111)
[5] = strain RA1017/pKP753 (ExbB, ExbDΔ92-101)
[6] = strain RA1017/pKP754 (ExbB, ExbDΔ82-91)
[7] = strain RA1017/pKP755 (ExbB, ExbDΔ72-81)
[8] = strain RA1017/pKP756 (ExbB, ExbDΔ62-71)
[9] = strain RA1017/pKP757 (ExbB, ExbDΔ52-61)
[10] = strain RA1017/pKP758 (ExbB, ExbDΔ32-41)
[11] = strain RA1017/pKP759 (ExbB, ExbDΔ22-31)
[12] = strain RA1017/pKP760 (ExbB, ExbDΔ12-21)
[13] = strain RA1017/pKP762 (ExbB, ExbDΔ42-51)
[14] = strain RA1017/pKP763 (ExbB, ExbDΔ112-121)
[15] = strain RA1017/pKP764 (ExbB, ExbDΔ122-131)
[16] = CuoP-treated (0.03 mM, 5 min, supplemented M9)
[17] = overexpressed ExbD cys substitution

Molecule	Susceptibility: highest five-fold dilution of a standard colicin preparation that provided an evident zone of clearing on a cell lawn (E. coli; [2])	Susceptibility: highest five-fold dilution of a standard colicin preparation that provided an evident zone of clearing on a cell lawn (E. coli; [3])	Susceptibility: highest five-fold dilution of a standard colicin preparation that provided an evident zone of clearing on a cell lawn (E. coli; [4])	Susceptibility: highest five-fold dilution of a standard colicin preparation that provided an evident zone of clearing on a cell lawn (E. coli; [5])	Susceptibility: highest five-fold dilution of a standard colicin preparation that provided an evident zone of clearing on a cell lawn (E. coli; [6])	Susceptibility: highest five-fold dilution of a standard colicin preparation that provided an evident zone of clearing on a cell lawn (E. coli; [7])	Susceptibility: highest five-fold dilution of a standard colicin preparation that provided an evident zone of clearing on a cell lawn (E. coli; [8])	Susceptibility: highest five-fold dilution of a standard colicin preparation that provided an evident zone of clearing on a cell lawn (E. coli; [9])	Susceptibility: highest five-fold dilution of a standard colicin preparation that provided an evident zone of clearing on a cell lawn (E. coli; [10])	Susceptibility: highest five-fold dilution of a standard colicin preparation that provided an evident zone of clearing on a cell lawn (E. coli; [11])	Susceptibility: highest five-fold dilution of a standard colicin preparation that provided an evident zone of clearing on a cell lawn (E. coli; [12])	Susceptibility: highest five-fold dilution of a standard colicin preparation that provided an evident zone of clearing on a cell lawn (E. coli; [13])	Susceptibility: highest five-fold dilution of a standard colicin preparation that provided an evident zone of clearing on a cell lawn (E. coli; [14])	Susceptibility: highest five-fold dilution of a standard colicin preparation that provided an evident zone of clearing on a cell lawn (E. coli; [15])	activity: initial rate of ferrichrome-mediated iron transport relative to wild-type plasmid-encoded ExbD [1] [%]	activity: iron transport relative to wild-type ExbD [1, 16]	activity: iron transport relative to wild-type ExbD ([1]; buffer only treated samples)	activity: iron transport relative to wild-type ExbD [1, 17] [%]
B1	T, T, T	T, T, T	T, T, T	T, T, T	T, T, T	T, T, T	T, T, T	T, T, T	T, T, T	T, T, T	T, T, T	T, T, T	T, T, T	T, T, T				
B2															80			
B3																5%	about 90%	90
B4															85			
B5															~110	at least 70%		110
B6	T, T, T	T, T, T	T, T, T	T, T, T	T, T, T	T, T, T	T, T, T	T, T, T	T, T, T	T, T, T	T, T, T	T, T, T	T, T, T	T, T, T				
B7	T, T, T	T, T, T	T, T, T	T, T, T	T, T, T	T, T, T	T, T, T	T, T, T	T, T, T	T, T, T	T, T, T	T, T, T	T, T, T	T, T, T				
